# Test results as given in article PMC3644619 (Gene, 2008).
# T1: hormone-binding domain (HBD) of ERR1 (UniProt P11474 1-423)
# T1 sequence (looked up): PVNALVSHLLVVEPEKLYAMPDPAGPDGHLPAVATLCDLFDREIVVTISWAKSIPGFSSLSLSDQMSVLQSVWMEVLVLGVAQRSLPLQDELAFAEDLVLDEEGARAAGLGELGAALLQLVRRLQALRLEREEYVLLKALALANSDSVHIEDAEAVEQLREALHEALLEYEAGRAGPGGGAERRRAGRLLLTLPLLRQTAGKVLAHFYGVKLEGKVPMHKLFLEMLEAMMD
# How the values were obtained:
# [1] = target: SF1 (steroidogenic factor 1) (UniProt Q04752 1-461); experiment: two-hybrid
# [2] = target: T1, hormone-binding domain (HBD) of ERR1; experiment: two-hybrid
# SF1 (steroidogenic factor 1), sequence (Q04752 whole entry, the tested form may be a part): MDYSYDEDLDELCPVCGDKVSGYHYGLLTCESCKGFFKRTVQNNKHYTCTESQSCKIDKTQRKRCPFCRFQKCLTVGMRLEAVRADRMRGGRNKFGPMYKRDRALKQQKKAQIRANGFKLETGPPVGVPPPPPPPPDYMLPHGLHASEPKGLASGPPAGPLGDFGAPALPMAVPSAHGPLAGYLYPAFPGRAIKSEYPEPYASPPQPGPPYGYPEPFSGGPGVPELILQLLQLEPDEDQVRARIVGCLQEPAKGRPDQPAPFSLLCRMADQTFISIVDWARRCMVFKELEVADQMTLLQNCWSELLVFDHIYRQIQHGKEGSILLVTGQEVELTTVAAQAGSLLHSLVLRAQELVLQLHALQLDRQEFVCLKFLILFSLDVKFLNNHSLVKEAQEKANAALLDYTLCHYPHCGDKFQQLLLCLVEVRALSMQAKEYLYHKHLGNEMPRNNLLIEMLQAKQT
binder,measurement,setting,value
PNRC1d (natural protein) not shown,fold increase of affinity compared to fl PNRC (two-hybrid β-galactosidase),[1],> 10 fold
same,fold increase of affinity compared to fl PNRC (two-hybrid β-galactosidase),[2],> 10 fold
